Data taken from doi:10.1101/334433 (bioRxiv, 2018).

Biological target: T1, GST-IRF4 (human, UniProt Q15306 1-451)
T1 sequence (looked up): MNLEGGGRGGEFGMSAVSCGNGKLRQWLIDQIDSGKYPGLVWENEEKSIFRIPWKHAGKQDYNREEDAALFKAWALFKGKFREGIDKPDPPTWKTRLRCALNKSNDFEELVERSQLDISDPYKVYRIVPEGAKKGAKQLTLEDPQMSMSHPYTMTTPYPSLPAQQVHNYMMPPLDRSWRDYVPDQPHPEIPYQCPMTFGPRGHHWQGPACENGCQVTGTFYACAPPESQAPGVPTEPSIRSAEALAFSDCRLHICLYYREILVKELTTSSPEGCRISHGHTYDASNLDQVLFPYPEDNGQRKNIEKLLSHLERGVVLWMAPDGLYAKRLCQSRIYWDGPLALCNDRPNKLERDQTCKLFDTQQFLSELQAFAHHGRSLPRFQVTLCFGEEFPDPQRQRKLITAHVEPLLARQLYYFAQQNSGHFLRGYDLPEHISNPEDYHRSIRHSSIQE
Assay: pull-down

B1: purified His-Peli1 (enzyme, human, UniProt Q96FA3 1-418, looked up)
chain: MFSPDQENHPSKAPVKYGELIVLGYNGSLPNGDRGRRKSRFALFKRPKANGVKPSTVHIACTPQAAKAISNKDQHSISYTLSRAQTVVVEYTHDSNTDMFQIGRSTESPIDFVVTDTVPGSQSNSDTQSVQSTISRFACRIICERNPPFTARIYAAGFDSSKNIFLGEKAAKWKTSDGQMDGLTTNGVLVMHPRNGFTEDSKPGIWREISVCGNVFSLRETRSAQQRGKMVEIETNQLQDGSLIDLCGATLLWRTAEGLSHTPTVKHLEALRQEINAARPQCPVGFNTLAFPSMKRKDVVDEKQPWVYLNCGHVHGYHNWGNKEERDGKDRECPMCRSVGPYVPLWLGCEAGFYVDAGPPTHAFSPCGHVCSEKTTAYWSQIPLPHGTHTFHAACPFCAHQLAGEQGYIRLIFQGPLD
B1: binds.
